From PMC4764128

Target: Dup A502,Y503 KIT D4D5 fragment (human) (UniProt P10721)
Test: SEC-MALS

Kd: 730 µM
Substance: Dup A502,Y503 KIT D4D5 fragment (from UniProt P10721 308-514) (domain or fragment)
